According to US20230285583A1, “LIQUID FORMULATION OF LONG-ACTING CONJUGATE OF GLUCAGON, GLP-1, AND GIP TRIGONAL AGONIST” (HANMI PHARM, CO., LTD., priority 2020, published 2023):
Bridge positions count the residues as written; N and C are the ends. Square brackets hold non-standard residues; d marks the D form. Ends that are not written are not given here. * marks the point of attachment. Acetyl(2-(4-imidazolyl)) = O=C(Cc1c[nH]cn1)*; Aib = CC(C)(N)C(=O)O

T1: human GIP receptor (human, UniProt P48546 22-466)
T1 sequence (looked up): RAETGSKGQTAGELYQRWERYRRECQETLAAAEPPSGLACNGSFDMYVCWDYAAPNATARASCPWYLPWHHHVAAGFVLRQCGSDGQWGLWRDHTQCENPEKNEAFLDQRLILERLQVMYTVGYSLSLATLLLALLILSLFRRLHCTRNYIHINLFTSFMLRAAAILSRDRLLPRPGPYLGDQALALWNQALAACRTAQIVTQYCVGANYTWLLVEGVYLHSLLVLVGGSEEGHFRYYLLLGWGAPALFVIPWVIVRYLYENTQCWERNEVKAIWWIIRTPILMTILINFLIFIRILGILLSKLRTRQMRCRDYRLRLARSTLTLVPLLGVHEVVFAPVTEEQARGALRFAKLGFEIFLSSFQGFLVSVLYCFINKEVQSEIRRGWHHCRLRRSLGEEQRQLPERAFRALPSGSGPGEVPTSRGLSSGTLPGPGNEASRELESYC

B1: trigonal agonist of SEQ ID NO: 19 (peptide)
peptide: Y[Aib]QGTFTSDYSKYLDECAAKEFVQWLLDHHPSSGQPPPS
modifications: bridge 16-20; not fully specified (bridges)
B2: trigonal agonist of SEQ ID NO: 21 (peptide)
peptide: Y[Aib]QGTFTSDYSKYLDECRAKDFVQWLLDHHPSSGQPPPS
modifications: bridge 16-20; not fully specified (bridges)
B3: trigonal agonist of SEQ ID NO: 32 (peptide)
peptide: Y[Aib]QGTFTSDYSKYLDEKAAKDFVQWLLDHHPSSGQPPPSC
modifications: bridge 16-20; not fully specified (bridges)
B4: trigonal agonist of SEQ ID NO: 17 (peptide)
peptide: H[Aib]QGTFTSDYSKYLDEKRQKEFVNWLLAQC
modifications: bridge 16-20; not fully specified (bridges)
B5: trigonal agonist of SEQ ID NO: 3 (peptide)
peptide: H[Aib]QGTFTSDYSKYLDEKAQKEFVQWLLDTC
modifications: bridge 16-20; not fully specified (bridges)
B6: trigonal agonist of SEQ ID NO: 22 (peptide)
peptide: Y[Aib]QGTFTSDYSKYLDECAAKDFVQWLLDHHPSSGQPPPS
modifications: bridge 16-20; not fully specified (bridges)
B7: trigonal agonist of SEQ ID NO: 2 (peptide)
peptide: Y[Aib]QGTFTSDYSKCLDEKRAKEFVQWLLDHHPSSGQPPPS
modifications: bridge 16-20; not fully specified (bridges)
B8: trigonal agonist of SEQ ID NO: 28 (peptide)
peptide: [Acetyl(2-(4-imidazolyl))][Aib]QGTFTSDYSKYLDECRAKEFVQWLLDHHPSSGQPPPS
modifications: bridge 16-20; not fully specified (bridges)
B9: trigonal agonist of SEQ ID NO: 13 (peptide)
peptide: H[Aib]QGTFTSDYSKYLDEKRQKEFVQWLLDTC
modifications: bridge 16-20; not fully specified (bridges)
B10: trigonal agonist of SEQ ID NO: 18 (peptide)
peptide: H[Aib]QGTFTSDYSKYLDEKRQKEFVQWLLNTKC
modifications: bridge 16-20; not fully specified (bridges)
B11: trigonal agonist of SEQ ID NO: 24 (peptide)
peptide: Y[Aib]QGTFTSDYSKCLDERAAKEFVQWLLDHHPSSGQPPPS
modifications: bridge 16-20; not fully specified (bridges)
B12: trigonal agonist of SEQ ID NO: 20 (peptide)
peptide: H[Aib]QGTFTSDYSKCLDEKRAKEFVQWLLDHHPSSGQPPPS
modifications: bridge 16-20; not fully specified (bridges)
B13: trigonal agonist of SEQ ID NO: 16 (peptide)
peptide: H[Aib]QGTFTSDYSIAMDEIHQKDFVNWLLAQC
modifications: lactam 16-20
B14: trigonal agonist of SEQ ID NO: 25 (peptide)
peptide: Y[Aib]QGTFTSDYSKCLDEKRAKDFVQWLLDHHPSSGQPPPS
modifications: bridge 16-20; not fully specified (bridges); ends not checked
B15: trigonal agonist of SEQ ID NO: 23 (peptide)
peptide: Y[Aib]QGTFTSDYSKCLDEKAAKEFVQWLLDHHPSSGQPPPS
modifications: bridge 16-20; not fully specified (bridges)
B16: trigonal agonist of SEQ ID NO: 14 (peptide)
peptide: H[Aib]EGTFTSDYSIAMDEIHQKDFVNWLLAQC
modifications: lactam 16-20
B17: trigonal agonist of SEQ ID NO: 26 (peptide)
peptide: Y[Aib]QGTFTSDYSKYLDERACKDFVQWLLDHHPSSGQPPPS
modifications: bridge 16-20; not fully specified (bridges); ends not checked
B18: trigonal agonist of SEQ ID NO: 27 (peptide)
peptide: Y[Aib]QGTFTSDCSKYLDERAAKDFVQWLLDHHPSSGQPPPS
modifications: bridge 16-20; not fully specified (bridges); ends not checked
B19: trigonal agonist of SEQ ID NO: 31 (peptide)
peptide: Y[Aib]QGTFTSDYSKYLDEKRAKDFVQWLLDHHPSSGQPPPSC
modifications: bridge 16-20; not fully specified (bridges)
B20: trigonal agonist of SEQ ID NO: 29 (peptide)
peptide: [Acetyl(2-(4-imidazolyl))][Aib]QGTFTSDYSKCLDEKRAKEFVQWLLDHHPSSGQPPPS
modifications: bridge 16-20; not fully specified (bridges)
B21: trigonal agonist of SEQ ID NO: 30 (peptide)
peptide: Y[Aib]QGTFTSDYSKYLDEKAAKEFVQWLLDHHPSSGQPPPSC
modifications: bridge 16-20; not fully specified (bridges)
B22: trigonal agonist of SEQ ID NO: 33 (peptide)
peptide: H[Aib]QGTFTSDYSKYLDEKRQKEFVQWLLDTKC
modifications: bridge 16-20; not fully specified (bridges)
B23: trigonal agonist of SEQ ID NO: 15 (peptide)
peptide: H[Aib]EGTFTSDYSIAMDEIHQKDFVDWLLAEC
modifications: bridge 16-20; not fully specified (bridges)

target: T1, human GIP receptor; assay: cell-based or functional assay

First: B1
Second: B2
The “In Vitro Activity Compared to Native Peptide (%) vs. GIP (relative titer from cAMP EC50)” value of the first is higher: 92.9% for the first, 17.2% for the second.

First: B3
Second: B4
The “In Vitro Activity Compared to Native Peptide (%) vs. GIP (relative titer from cAMP EC50)” value of the first is higher: 35.5% for the first, 0.8% for the second.

First: B5
Second: B6
The “In Vitro Activity Compared to Native Peptide (%) vs. GIP (relative titer from cAMP EC50)” value of the first is lower: 0.8% for the first, 39.8% for the second.

First: B7
Second: B8
The “In Vitro Activity Compared to Native Peptide (%) vs. GIP (relative titer from cAMP EC50)” value of the first is higher: 59.7% for the first, 3% for the second.

Compared with B9, B10 is lower in “In Vitro Activity Compared to Native Peptide (%) vs. GIP (relative titer from cAMP EC50)” value: 0.3% for the first, 0.2% for the second.

Going from B11 to B12, the “In Vitro Activity Compared to Native Peptide (%) vs. GIP (relative titer from cAMP EC50)” value falls from 62.8% to 11.6%.

Going from B13 to B14, the “In Vitro Activity Compared to Native Peptide (%) vs. GIP (relative titer from cAMP EC50)” value rises from 2.4% to 64.4%.

First: B15
Second: B16
The “In Vitro Activity Compared to Native Peptide (%) vs. GIP (relative titer from cAMP EC50)” value of the first is higher: 107% for the first, 1.3% for the second.

Going from B17 to B18, the “In Vitro Activity Compared to Native Peptide (%) vs. GIP (relative titer from cAMP EC50)” value falls from 94.7% to 1.6%.

Going from B19 to B20, the “In Vitro Activity Compared to Native Peptide (%) vs. GIP (relative titer from cAMP EC50)” value falls from 11.7% to 1%.

Going from B21 to B22, the “In Vitro Activity Compared to Native Peptide (%) vs. GIP (relative titer from cAMP EC50)” value falls from 18% to 0.12%.

B23 was tested, and the “In Vitro Activity Compared to Native Peptide (%) vs. GIP (relative titer from cAMP EC50)” value was 0.1%.

target: human GCG receptor (human, UniProt P47871 26-477); assay: cell-based or functional assay
Sequence (P47871 26-477): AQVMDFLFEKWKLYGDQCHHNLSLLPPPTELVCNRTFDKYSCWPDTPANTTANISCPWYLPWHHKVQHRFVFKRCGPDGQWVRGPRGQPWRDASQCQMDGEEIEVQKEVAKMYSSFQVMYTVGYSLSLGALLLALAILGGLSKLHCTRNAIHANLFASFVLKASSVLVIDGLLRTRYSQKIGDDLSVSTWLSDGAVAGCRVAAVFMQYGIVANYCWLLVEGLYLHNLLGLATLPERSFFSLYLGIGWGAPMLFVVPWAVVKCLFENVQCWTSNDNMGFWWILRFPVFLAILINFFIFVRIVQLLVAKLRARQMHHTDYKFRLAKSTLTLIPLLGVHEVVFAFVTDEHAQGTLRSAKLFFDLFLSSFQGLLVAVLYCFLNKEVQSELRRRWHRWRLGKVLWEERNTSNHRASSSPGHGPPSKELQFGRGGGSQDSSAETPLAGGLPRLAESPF

First: B1
Second: B2
The “In Vitro Activity Compared to Native Peptide (%) vs. Glucagon (relative titer from cAMP EC50)” value of the first is lower: 60.1% for the first, 172% for the second.

Going from B3 to B4, the “In Vitro Activity Compared to Native Peptide (%) vs. Glucagon (relative titer from cAMP EC50)” value falls from 12.2% to 4.9%.

Going from B5 to B6, the “In Vitro Activity Compared to Native Peptide (%) vs. Glucagon (relative titer from cAMP EC50)” value rises from 0.7% to 46.2%.

Going from B7 to B8, the “In Vitro Activity Compared to Native Peptide (%) vs. Glucagon (relative titer from cAMP EC50)” value falls from 140% to 5.4%.

Compared with B9, B10 is lower in “In Vitro Activity Compared to Native Peptide (%) vs. Glucagon (relative titer from cAMP EC50)” value: 7.5% for the first, 2.6% for the second.

First: B11
Second: B12
The “In Vitro Activity Compared to Native Peptide (%) vs. Glucagon (relative titer from cAMP EC50)” value of the first is lower: 9.6% for the first, 25.2% for the second.

Compared with B13, B14 is higher in “In Vitro Activity Compared to Native Peptide (%) vs. Glucagon (relative titer from cAMP EC50)” value: 0.7% for the first, 71.3% for the second.

Compared with B15, B16 is lower in “In Vitro Activity Compared to Native Peptide (%) vs. Glucagon (relative titer from cAMP EC50)” value: 8.8% for the first, 8.4% for the second.

Compared with B17, B18 is lower in “In Vitro Activity Compared to Native Peptide (%) vs. Glucagon (relative titer from cAMP EC50)” value: 12.7% for the first, 1% for the second.

First: B19
Second: B20
The “In Vitro Activity Compared to Native Peptide (%) vs. Glucagon (relative titer from cAMP EC50)” value of the first is higher: 47.6% for the first, 0.9% for the second.

Going from B21 to B22, the “In Vitro Activity Compared to Native Peptide (%) vs. Glucagon (relative titer from cAMP EC50)” value rises from 8.5% to 14%.

For B23, the “In Vitro Activity Compared to Native Peptide (%) vs. Glucagon (relative titer from cAMP EC50)” value was 1.4%.

target: human GLP-1 receptor (human, UniProt P43220 24-463); assay: cell-based or functional assay

First: B1
Second: B2
The “In Vitro Activity Compared to Native Peptide (%) vs. GLP-1 (relative titer from cAMP EC50)” value of the first is higher: 64.6% for the first, 15.8% for the second.

Compared with B3, B4 is higher in “In Vitro Activity Compared to Native Peptide (%) vs. GLP-1 (relative titer from cAMP EC50)” value: 38.7% for the first, 57.9% for the second.

Going from B5 to B6, the “In Vitro Activity Compared to Native Peptide (%) vs. GLP-1 (relative titer from cAMP EC50)” value falls from 142% to 28.5%.

Going from B7 to B8, the “In Vitro Activity Compared to Native Peptide (%) vs. GLP-1 (relative titer from cAMP EC50)” value rises from 20.1% to 22.6%.

Compared with B9, B10 is lower in “In Vitro Activity Compared to Native Peptide (%) vs. GLP-1 (relative titer from cAMP EC50)” value: 44.1% for the first, 39.1% for the second.

Going from B11 to B12, the “In Vitro Activity Compared to Native Peptide (%) vs. GLP-1 (relative titer from cAMP EC50)” value rises from 24.3% to 95.4%.

Compared with B13, B14 is lower in “In Vitro Activity Compared to Native Peptide (%) vs. GLP-1 (relative titer from cAMP EC50)” value: 27.1% for the first, 15.1% for the second.

Compared with B15, B16 is higher in “In Vitro Activity Compared to Native Peptide (%) vs. GLP-1 (relative titer from cAMP EC50)” value: 27.9% for the first, 161% for the second.

Compared with B17, B18 is lower in “In Vitro Activity Compared to Native Peptide (%) vs. GLP-1 (relative titer from cAMP EC50)” value: 90.1% for the first, 11.5% for the second.

First: B19
Second: B20
The “In Vitro Activity Compared to Native Peptide (%) vs. GLP-1 (relative titer from cAMP EC50)” value of the first is lower: 10.3% for the first, 12.9% for the second.

Compared with B21, B22 is higher in “In Vitro Activity Compared to Native Peptide (%) vs. GLP-1 (relative titer from cAMP EC50)” value: 35.1% for the first, 51% for the second.

For B23, the “In Vitro Activity Compared to Native Peptide (%) vs. GLP-1 (relative titer from cAMP EC50)” value was 30.6%.
